Drawing on publication PMC2844434, this text covers glucose level of adult S. japonicum worms cultured 24 h with 20% anti-LD1 + anti-LD2 mouse antisera (medium with foetal bovine serum as source of insulin; endogenous receptors), against normal serum for 2 substances.

For this experiment, the target named is Human pro-insulin fused to the Gal4 DNA binding domain (human).
Chain of Human pro-insulin fused to the Gal4 DNA binding domain (human) (P01308 25-110): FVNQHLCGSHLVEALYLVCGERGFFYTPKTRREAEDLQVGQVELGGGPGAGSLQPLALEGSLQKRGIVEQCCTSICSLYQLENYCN

With “Ligand domain of Schistosoma japonicum insulin receptor 1 (SjIR-1), D59 to E411 (domain or fragment)”, the glucose level of adult S. japonicum worms cultured 24 h with 20% anti-LD1 + anti-LD2 mouse antisera (medium with foetal bovine serum as source of insulin; endogenous receptors), against normal serum turned out to be 65 % reduction. The value for “Ligand domain of Schistosoma japonicum insulin receptor 2 (SjIR-2), Q7 to K399 (domain or fragment)” was 65 % reduction.
